The target in experiment [1] is T1, human Wnt-11 (wild-type, untagged) (human, UniProt O96014 25-354).
T1 construct: whole, on cells; also called wild-type Wnt-11
T1 sequence (looked up): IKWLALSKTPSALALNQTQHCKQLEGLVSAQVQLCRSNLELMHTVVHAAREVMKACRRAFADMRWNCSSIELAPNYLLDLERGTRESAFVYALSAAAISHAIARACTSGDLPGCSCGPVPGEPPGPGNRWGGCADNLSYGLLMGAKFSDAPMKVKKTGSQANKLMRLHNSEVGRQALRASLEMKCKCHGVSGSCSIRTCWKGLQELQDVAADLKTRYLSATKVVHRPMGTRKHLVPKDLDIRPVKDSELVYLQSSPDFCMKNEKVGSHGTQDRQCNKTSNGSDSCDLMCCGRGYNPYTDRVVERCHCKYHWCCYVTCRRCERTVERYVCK
Nature of the experiment: immunofluorescence of non-permeabilized VCaP (Wnt-11 high) and C4-2B (Wnt-11 low) cells.

Experiment [2] addresses T2, WNT9A peptide RASLLKRGFKETAC
T2 peptide: RASLLKRGFKETAC
The experiment can be described thus: peptide ELISA.

The target in experiment [3] is T3, WNT7A peptide GKELKVGSREAAC
T3 peptide: GKELKVGSREAAC
The experiment can be described thus: peptide ELISA. A general note: ELISA stands for enzyme-linked immunosorbent assay.

The target of experiment [4] is T4, WNT7B peptide GQELRVGSREAAC
T4 peptide: GQELRVGSREAAC
Nature of the experiment: peptide ELISA.

Experiment [5] concerns the target T5, WNT10A peptide YESPIFSRGFRESAC
T5 peptide: YESPIFSRGFRESAC
Nature of the experiment: peptide ELISA.

For experiment [6], the target named is T6, WNT3/3A peptide DSLAIFGPVLDKATRESAC
T6 peptide: DSLAIFGPVLDKATRESAC
Nature of the experiment: peptide ELISA.

Experiment [7] concerns the target T7, Wnt-11 peptide LLDLERGTRESAC (human).
T7 construct: The C-terminal cysteine is not part of Wnt-11; also called wt101
T7 peptide: LLDLERGTRESAC
The experiment can be described thus: peptide dot blot and peptide ELISA (Fig. 6a, b).

The target of experiment [8] is T8, Wnt-11 peptide LLDLERGTRESA (human).
T8 construct: also called Wnt-11 amino acids L101-A112
T8 peptide: LLDLERGTRESA
The experiment can be described thus: peptide dot blot.

For experiment [9], the target named is T9, Wnt-11 antibody epitope deletion mutant Wnt-11m (Wnt-11 delta 101-108, untagged) (human, UniProt O96014 25-354).
T9 construct: whole, on cells; also called AE
T9 sequence (looked up): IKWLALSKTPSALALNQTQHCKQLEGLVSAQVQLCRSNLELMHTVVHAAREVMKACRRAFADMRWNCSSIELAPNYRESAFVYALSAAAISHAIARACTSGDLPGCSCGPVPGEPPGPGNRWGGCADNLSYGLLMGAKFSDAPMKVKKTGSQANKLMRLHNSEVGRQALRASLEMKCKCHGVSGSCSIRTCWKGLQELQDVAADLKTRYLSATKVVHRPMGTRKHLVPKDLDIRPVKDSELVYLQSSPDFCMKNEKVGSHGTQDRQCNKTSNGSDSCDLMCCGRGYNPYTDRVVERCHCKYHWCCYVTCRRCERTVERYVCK
Nature of the experiment: Ab1 staining and FACS sorting of transfected HEK 293 cells, western blot of Ab1high and Ab1low populations.

In experiment [10] the target is T10, Wnt-11 alanine replacement peptide P03 LLALERGTRESA (human).
T10 peptide: LLALERGTRESA
Nature of the experiment: peptide ELISA, alanine replacement panel.

In experiment [11] the target is T11, Wnt-11 alanine replacement peptide P04 LLDAERGTRESA (human).
T11 peptide: LLDAERGTRESA
The experiment can be described thus: peptide ELISA, alanine replacement panel.

Experiment [12] concerns the target T12, Wnt-11 alanine replacement peptide P01 ALDLERGTRESA (human).
T12 peptide: ALDLERGTRESA
The experiment can be described thus: peptide ELISA, alanine replacement panel.

For experiment [13], the target named is T13, Wnt-11 alanine replacement peptide P07 LLDLERATRESA (human).
T13 peptide: LLDLERATRESA
Nature of the experiment: peptide ELISA, alanine replacement panel.

Experiment [14] has as its target T14, Wnt-11 alanine replacement peptide P10 LLDLERGTRASA (human).
T14 peptide: LLDLERGTRASA
The experiment can be described thus: peptide ELISA, alanine replacement panel.

Experiment [15] concerns the target T15, Wnt-11 alanine replacement peptide P11 LLDLERGTREAA (human).
T15 peptide: LLDLERGTREAA
The experiment can be described thus: peptide ELISA, alanine replacement panel.

Experiment [16] concerns the target T16, Wnt-11 alanine replacement peptide P05 LLDLARGTRESA (human).
T16 peptide: LLDLARGTRESA
Nature of the experiment: peptide ELISA, alanine replacement panel.

Experiment [17] concerns the target T17, Wnt-11 alanine replacement peptide P06 LLDLEAGTRESA (human).
T17 peptide: LLDLEAGTRESA
Nature of the experiment: peptide ELISA, alanine replacement panel.

Experiment [18] deals with T18, Wnt-11 alanine replacement peptide P02 LADLERGTRESA (human).
T18 peptide: LADLERGTRESA
The experiment can be described thus: peptide ELISA, alanine replacement panel.

Experiment [19] addresses T19, Wnt-11 alanine replacement peptide P09 LLDLERGTAESA (human).
T19 peptide: LLDLERGTAESA
Nature of the experiment: peptide ELISA, alanine replacement panel.

The target of experiment [20] is T20, Wnt-11 alanine replacement peptide P08 LLDLERGARESA (human).
T20 peptide: LLDLERGARESA
Nature of the experiment: peptide ELISA, alanine replacement panel.

Experiment [21] has as its target T8, Wnt-11 peptide LLDLERGTRESA
Nature of the experiment: peptide ELISA.

Experiment [22] concerns the target VSV-G-tagged full-length LRP6 (UniProt O75581). The experiment can be described thus: immunofluorescence colocalization in transfected cells.
For experiment [23], the target named is T7, Wnt-11 peptide LLDLERGTRESAC
Nature of the experiment: peptide dot blot (Fig. 6a).

Consider five molecules from EP4497755A1 (Asociación Centro de Investigación Cooperativa en …, dated 2025).

Sequence of VSV-G-tagged full-length LRP6 (O75581 other isoform, or with tags, fused parts or gaps limits assumed): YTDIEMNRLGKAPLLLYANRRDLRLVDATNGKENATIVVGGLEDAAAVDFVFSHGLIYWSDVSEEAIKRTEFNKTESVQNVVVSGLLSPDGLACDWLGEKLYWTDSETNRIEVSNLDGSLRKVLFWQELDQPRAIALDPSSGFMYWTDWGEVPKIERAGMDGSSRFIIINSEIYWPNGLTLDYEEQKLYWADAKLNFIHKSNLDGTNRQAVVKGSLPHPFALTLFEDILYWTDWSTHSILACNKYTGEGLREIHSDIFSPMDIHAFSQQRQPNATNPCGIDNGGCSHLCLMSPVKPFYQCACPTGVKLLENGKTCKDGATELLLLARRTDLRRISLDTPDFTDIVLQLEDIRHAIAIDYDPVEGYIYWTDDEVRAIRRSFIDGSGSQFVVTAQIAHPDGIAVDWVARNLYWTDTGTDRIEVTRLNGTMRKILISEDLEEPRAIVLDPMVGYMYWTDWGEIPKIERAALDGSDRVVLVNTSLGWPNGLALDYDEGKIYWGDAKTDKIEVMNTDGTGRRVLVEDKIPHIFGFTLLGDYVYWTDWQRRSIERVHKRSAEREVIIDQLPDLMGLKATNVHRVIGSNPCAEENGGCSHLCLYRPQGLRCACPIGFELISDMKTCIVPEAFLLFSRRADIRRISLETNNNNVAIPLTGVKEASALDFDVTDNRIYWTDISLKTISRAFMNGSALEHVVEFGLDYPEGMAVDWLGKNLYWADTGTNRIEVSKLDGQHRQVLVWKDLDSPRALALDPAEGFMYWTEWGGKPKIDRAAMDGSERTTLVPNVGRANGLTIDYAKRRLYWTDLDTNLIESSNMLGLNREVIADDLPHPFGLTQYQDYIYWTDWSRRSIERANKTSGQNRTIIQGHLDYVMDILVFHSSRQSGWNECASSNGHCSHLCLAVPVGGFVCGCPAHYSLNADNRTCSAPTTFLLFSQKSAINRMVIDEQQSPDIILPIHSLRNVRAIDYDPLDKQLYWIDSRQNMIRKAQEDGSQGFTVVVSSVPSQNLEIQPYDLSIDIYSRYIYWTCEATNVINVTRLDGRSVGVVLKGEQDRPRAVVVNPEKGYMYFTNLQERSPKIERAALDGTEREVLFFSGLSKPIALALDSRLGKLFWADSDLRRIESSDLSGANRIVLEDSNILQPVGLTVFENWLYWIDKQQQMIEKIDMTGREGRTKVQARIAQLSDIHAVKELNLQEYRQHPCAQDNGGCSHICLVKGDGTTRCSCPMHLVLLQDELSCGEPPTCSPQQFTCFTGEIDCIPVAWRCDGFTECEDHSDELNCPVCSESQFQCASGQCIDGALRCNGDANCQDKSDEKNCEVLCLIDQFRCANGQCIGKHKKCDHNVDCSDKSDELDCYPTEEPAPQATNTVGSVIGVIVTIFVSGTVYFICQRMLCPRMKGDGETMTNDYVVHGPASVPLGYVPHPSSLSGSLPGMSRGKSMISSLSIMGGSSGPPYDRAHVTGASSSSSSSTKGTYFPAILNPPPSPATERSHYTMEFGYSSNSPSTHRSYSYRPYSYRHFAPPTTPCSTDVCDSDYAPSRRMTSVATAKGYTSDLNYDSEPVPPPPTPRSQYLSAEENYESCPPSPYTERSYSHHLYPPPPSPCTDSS

B1: anti-Wnt-11 rat monoclonal antibody Ab1 (E8) (antibody, rat IgG2a, V domains shown)
VH: EVELVESGGGLVQPGRSLKLSCAASGFTFSDYGMAWVRQTPTKGLEWVASITSGGGNPYYRDSVKGRFTISRDNAKNTQHLQMDSLRSEDTATYYCARHEYYGNYMTCFDYWGQGVMVTVSS
VL: AIVLNQSPSSIVASQGEKVTITCRASLSISSNYLHWYQQKPGAFPKLVIYSTSYRASGVPSRFSGSGSGTSYSFTISRVEAEDVATYYCQQGSSDPLTFGSGTKLEIK
notes: also called anti-Wnt-11-Ab1; Wnt-11 antibody E8
Regarding B1, the binding result in experiment [1] is “binds”; in experiment [2] it was “no binding”; in experiment [3] it was “no binding”; in experiment [4], “no binding”; in [5] it was “no binding”; in experiment [6] it was “no binding”. Further, the binding result in [7] was “binds”; in experiment [8], “binds”; in experiment [9], “no binding (tested: Ab1 at 30 µg/ml)”; in experiment [10], “no binding”; in experiment [11], “no binding”; in [12], “no binding”. Besides, the binding result is “binds” in [13]; “binds” in experiment [14]; “binds” in [15]; “no binding” in [16]; “no binding” in [17]; “no binding” in experiment [18]. Also, the binding result in experiment [19] and in [20] was “binds” throughout.

B2: chimeric anti-Wnt-11 antibody E8h4hk (E8 IgG4k chimeric antibody) (antibody, V domains shown)
VH: EVELVESGGGLVQPGRSLKLSCAASGFTFSDYGMAWVRQTPTKGLEWVASITSGGGNPYYRDSVKGRFTISRDNAKNTQHLQMDSLRSEDTATYYCARHEYYGNYMTCFDYWGQGVMVTVSS
VL: AIVLNQSPSSIVASQGEKVTITCRASLSISSNYLHWYQQKPGAFPKLVIYSTSYRASGVPSRFSGSGSGTSYSFTISRVEAEDVATYYCQQGSSDPLTFGSGTKLEIK
notes: also called chimeric E8 (hIgG4kappa)
As for B2, the binding result in experiment [21] is reported as “binds”.

B3: human Wnt-11 (wild-type, untagged) (ligand, UniProt O96014 25-354, looked up)
chain: IKWLALSKTPSALALNQTQHCKQLEGLVSAQVQLCRSNLELMHTVVHAAREVMKACRRAFADMRWNCSSIELAPNYLLDLERGTRESAFVYALSAAAISHAIARACTSGDLPGCSCGPVPGEPPGPGNRWGGCADNLSYGLLMGAKFSDAPMKVKKTGSQANKLMRLHNSEVGRQALRASLEMKCKCHGVSGSCSIRTCWKGLQELQDVAADLKTRYLSATKVVHRPMGTRKHLVPKDLDIRPVKDSELVYLQSSPDFCMKNEKVGSHGTQDRQCNKTSNGSDSCDLMCCGRGYNPYTDRVVERCHCKYHWCCYVTCRRCERTVERYVCK
In experiment [22], B3 returned a colocalization with LRP6, Pearson of 0.6 and a colocalization with LRP6, Spearman of 0.67.

B4: Wnt-11 antibody epitope deletion mutant Wnt-11m (Wnt-11 delta 101-108, untagged) (ligand, human, UniProt O96014 25-354, looked up)
chain: IKWLALSKTPSALALNQTQHCKQLEGLVSAQVQLCRSNLELMHTVVHAAREVMKACRRAFADMRWNCSSIELAPNYRESAFVYALSAAAISHAIARACTSGDLPGCSCGPVPGEPPGPGNRWGGCADNLSYGLLMGAKFSDAPMKVKKTGSQANKLMRLHNSEVGRQALRASLEMKCKCHGVSGSCSIRTCWKGLQELQDVAADLKTRYLSATKVVHRPMGTRKHLVPKDLDIRPVKDSELVYLQSSPDFCMKNEKVGSHGTQDRQCNKTSNGSDSCDLMCCGRGYNPYTDRVVERCHCKYHWCCYVTCRRCERTVERYVCK
B4: in experiment [22], the colocalization with LRP6, Pearson was 0.4 and the colocalization with LRP6, Spearman stood at 0.46.

B5: anti-Wnt-11 rat monoclonal antibody Ab2 (F10) (antibody, rat IgG2c, V domains shown)
VH: EVQLVESGGGLVQPGRSLKLSCAASGFTFSNYGMAWVRQAPTKGLEWVASINYDGRNTYYRDSVKGRFTISRDNAKSTVYLQMDSLRSEDTATYYCARPQDGVIDAWGQGDSVTVSS
VL: DVVMTQTPVSLPVSLGGQASISCRSSQSLVHSNGNTYLHWYLQKPGQFPQLLIYRVSNRFSGVPDRFSGSGSGTDFTLKISRVESEDLGVYYCLQGTHLPPTFGGGTKLELK
notes: also called anti-Wnt-11-F10; Wnt-11 antibody F10
As for B5, the binding result in experiment [23] and in [8] was “binds” each time.
